Measured values reported in patent publication US6645501B2, “Anti-pathogen system and methods of use thereof” (Washington University, priority 1997, dated 2003).
Entries after “also recorded” stand apart in the source; their conditions may differ.

B1: TAT-Casp3WT: TAT-D site-p17-A site-p12 modified Caspase-3 fusion protein, Pro domain replaced by TAT transduction domain (protein)
chain: GRKKRRQRRRGYPYDVPDYACTERQANFLGKIWPGISLDNSYKMDYPEMGLCIIINNKNFHKSTGMTSRSGTDVDAANLRETFRNLKYEVRNKNDLTREEIVELMRDVSKEDHSKRSSFVCVLLSHGEEGIIFGTNGPVDLKKITNFFRGDRCRSLTGKPKLFIIQACRGTELDCGIETSQVSQNYPIVQNLQGVDDDMACHKIPVEADFLYAYSTAPGYYSWRNSKDGSWFIQSLCAMLKQYADKLEFMHILTRVNRKVATEFESFSFDATFHAKKQIPCIVSMLTKELYFYH
modifications: left off: small tags and cut ends
notes: TAT-D site-p17-A site-p12 modified Caspase-3 fusion protein, Pro domain replaced by TAT transduction domain
B2: TAT-p16: control TAT-p16 fusion protein with no HIV cleavage site (protein)
chain: GRKKRRQRRRGMEPAAGSSMEPSADWLATAAARGRVEEVRALLEAGALPNAPNSYGRRPIQVMMMGSARVAELLLLHGAEPNCADPATLTRPVHDAAREGFLDTLVVLHRAGARLDVRDAWGRLPVDLAEELGHRDVARYLRAAAGGTRGSNHARIDAAEGPSDIPD
modifications: left off: small tags and cut ends
notes: control TAT-p16 fusion protein with no HIV cleavage site

What was measured:
[1] = system: Jurkat T cells; experiment: FACS and confocal analysis of FITC-labeled TAT fusion proteins added to Jurkat T cells; type: cell-based; details: for cells transduced: FITC-labeled protein added to media of Jurkat T cells
Protocol: To test the ability of TAT-Casp3 proteins to transduce into cells, TAT-Casp3 proteins were conjugated to fluorescein (FITC), then added directly to the media of Jurkat T cells and analyzed by Flow Cytometry (FACS) (FIGS. 9B-C). Both TAT-Casp3WT and TAT-Casp3MUT proteins rancidly transduced into ˜100% of cells, achieving maximum intracellular concentration in less than 20 min. In addition, based on the narrow peak width before and after addition of FITC labeled proteins, individual cells within the population contain near identical intracellular concentrations of TAT-Casp3-FITC protein. […] Thus, TAT-Casp3 proteins readily transduce into 100% of all cells inca rapid and concentration-dependent fashion.
The generation and transduction of TAT fusion proteins shown in FIGS. 9A-E are explained in more detail as follows: FIG. 9A. Diagram depicting HIV cleavage site sequences and domains of TAT fusion proteins. FIGS. 9B-D. FACS kinetic analysis of fluorescein (FITC) labeled TAT-Casp3WT, TAT-Casp3MUT and TAT-HIV Pr proteins added to cells at 0, 20 and 30 min. FIG. 9E. FACS dose analysis of 3, 6, and 12 nM TAT-Casp3WT-FITC protein added to cells at I hr post-addition. Note rapid, concentration-dependent transduction of all FITC labeled protein into ˜100% of cells and near identical intracellular concentration within the population as measured by FACS peak width of control vs. transduced cells.
(§1) 1. […] See Lissy, N. A., et al. (supra). […] See Ezhevsky, S. A., et al. (supra). […] See Xiang, J., et al., (supra). […] See Xiang, J., et al., (supra). […] See Ezhevsky, S. A., et al. (supra).

[2] = system: Jurkat T cells; experiment: Cytotoxicity of TAT-Casp3 on uninfected Jurkat T cells, viability by Trypan Blue exclusion; details: co-transduced with TAT-HIV Pr
Protocol: In addition, the ability of TAT-Casp3 protein to induce apoptosis in cells co-transduced with TAT-HIV Pr protein was tested. Jurkat T cells were treated with 100 nM TAT-Casp3WT or TATCasp3MUT proteins alone or in combination with 50 nM TAT-HIV Pr protein and assayed for cell viability 16 hr post-treatment (FIG. 11A). […] See Salvensen, G. S., et al., Henkart, P. A., Cohen, G. M., Woo, M., et al., Enari, M. et al., Liu, X., et al. (supra).
FIG. 11A Cultures of Jurkat T cells were transduced with combinations of TAT-Casp3WT (WT), TAT-Casp3MUT (MUT) and TAT-HIV Protease (Pr) proteins for 16 hr and analyzed for cell viability. […] FIG. 11B Cultures of Jurkat T cells were co-transduced with TAT-Casp3WT (WT), TAT-Casp3MUT (MUT) proteins in combination with TAT-HIV Pr (Pr) protein and analyzed for kinetics of cell viability as indicated.
1. Cell culture-p16(−) Jurkat T cells (ATCC) were grown as described. See Lissy, N. A., et al. (supra). For in vivo substrate cleavage, 1×10^6 cells were transduced with 100 nM TAT-p16, TAT-A-p16, TAT-Casp3MUT and/or 50 nM TAT-HIV Pr proteins for 1, 5 or 8 hr as indicated and analyzed by anti-p16 (Santa Cruz) or anti-Casp3 (Pharmingen) immunoblot analysis. See Ezhevsky, S. A., et al. (supra). For cytotoxicity of TAT-Casp3 on uninfected cells, 1×10^6 cells were transduced with 100 nM TAT-Casp3WT, TAT-Casp3MUT and/or 50 nM TAT-HIV Pr proteins for 16 hr and assayed for viability by Trypan Blue exclusion and/or genomic DNA damage by TUNEL assay (Trevigen). Number of TUNEL positive cells reported as per high-powered microscopic field with four fields per experiment averaged. TAT-Casp3 activity was measured by incubation of 20 μg of whole cell lysate with 50 μM DEVD-AFC and fluorescent AFC formation measured on a FL500 microplate fluorescence reader (Bio-Tek) as described. See Xiang, J., et al., (supra). Cells were preincubated with 1 μg/ml Ritonavir (Abbott Labs) for 1 hr prior to transduction. For cytotoxicity of TAT-Casp3 on infected cells, Jurkat cultures were infected with 100 ng p24 Ag equivalent NLHX HIV-I strain for 7-14 days, assayed microscopically for cytopathic effects, then replated at 1×10^6/ml and transduced with 100 nM of TAT-Casp3WT or TAT-Casp3MUT proteins for 16 hr followed by exclusionary dye viability analysis. Infected cells were pretreated with 1 μg/ml Ritonavir for 24 hr prior to transduction with TAT-Casp3WT protein. See Xiang, J., et al., (supra). For Flow Cytometry (FACS) analysis, fluorescein (FITC) conjugated TAT fusion proteins were added to Jurkat T cell culture media and 1×10^4 cells were analyzed by FACS as described. See Ezhevsky, S. A., et al. (supra).

[3] = system: Jurkat T cells; experiment: TUNEL assay for degraded genomic DNA in transduced Jurkat T cells; type: cell-based
Protocol: (§2) Additionally, transduced cultures were tested for degraded genomic DNA by TUNEL assay. See Coates, P. J., Molecular methods for the identification of apoptosis in tissues. J. Histotechnology 17: 261 (1994). […] Activation of TAT-Casp3 was also assayed by its ability to cleave an artificial Caspase-3 substrate. […] See Xiang, J., et al., Bax-induced cell death may not require interleukin 1B-converting enzyme-like proteases. Proc. Natl. Acad. Sci. USA 93: 14550 (1996).
(§3) The HIV Protease activates TAT-Casp3WT protein shown in FIGS. 12A-B are explained in more detail as follows. FIG. 12A. […] Abscissa: TUNEL positive cells per high-powered microscopic field; Ctrl, control addition of PBS to cultures; error bars represent SD. FIG. 12B. […] Ctrl, control PBS addition; ocFAS crosslinking, positive control.
as §1

[4] = system: caspase-3 activity (DEVD-AFC cleavage); experiment: Caspase-3 enzyme assay, cleavage of DEVD-AFC by whole cell lysate of transduced Jurkat T cells; type: cell-based; details: 6 hr
Protocol: as §2, §3, §1

[5] = system: Jurkat T cells infected with the NLHX strain of HIV-I; experiment: Cytotoxicity of TAT-Casp3 on HIV infected Jurkat cultures, exclusionary dye viability analysis; type: cell-based
From the text: To make this determination, Jurkat T cells were infected for 7-14 days with the NLHX strain of HIV-I and examined microscopically for HIV cytopathic effects. See Westervelt, P., et al., Identification of a determinant within the HIV-1 surface envelope glycoprotein critical for productive infection of cultured primary monocytes. Proc. Natl. Acad. Sci USA 88: 3097 (1991). At the start of each transduction experiment approximately 50% of the culture was HIV positive. HIV infected cultures were transduced for 16 hr with 100 nM TAT-Casp3WT or TATCasp3MUT protein and then assayed for cell viability (FIG. 13). […] In addition, we detected both the appearance of cells containing <2N DNA content and cells with condensed nuclei in TAT-Casp3 treated cells.
To determine if TAT-Casp3WT induced apoptosis was dependent on active HIV Protease in the infected cultures, HIV infected cultures were pretreated with 1 μg/ml Ritonavir prior to transduction with 100 nM TAT-Casp3WT protein (FIG. 5). […] In addition, the observed increased survival of Ritonavir treated cells is consistent with increased longevity of protease inhibitor treated HIV infected cells. See Coffin, J. M., et al. (supra).
The specific killing of HIV infected cells shown in FIG. 5 is explained in more detail as follows. Jurkat T cells were infected for 7-14 days with HIV strain NLHX, then transduced with TAT-Casp3WT (WT) or TAT-Casp3MUT (MUT) proteins for 16 hr and assayed for cell viability. […] Ctrl, control addition of PBS to cultures; abscissa, % viability of HIV positive cells in the population at start of transduction; error bars represent SD.
as §1

[6] = system: Jurkat T-cells infected by HIV; experiment: Cleavage of transduced p16 fusion proteins in HIV-infected Jurkat T-cells, Western/immunoblot with anti-p16 antibody; type: cell-based; details: after 4, 8 and 12 hours
Protocol: Purified p16 fusion proteins were individually transduced into Jurkat T-cells infected by HIV. Methods for infecting the Jurkat T-cells with HIV and transducing fusion proteins are described in examples, which follow. After 4, 8 and 12 hours, the cells are analyzed for cleavage of the fusion protein by Western/immunoblot analysis using a commercially available anti-P16 antibody (Santa Cruz). As a control, the p16 cDNA was fused to the pTAT vector described in Example 1 to produce the vector shown in FIG. 3D (no HIV protease cleavage site). That vector encoded a p16 fusion protein fused to TAT that was not cleaved in the infected cells.

[7] = biological target: T1, HIV Protease (Human immunodeficiency virus type 1 group M subtype B, UniProt P04585); experiment: In vivo substrate cleavage by co-transduced TAT-HIV Pr in Jurkat T cells, immunoblot; type: cell-based; details: 100 nM substrate, 50 nM TAT-HIV Pr, Jurkat T cells, immunoblot
T1 construct: PCR cloning the HIV Protease gene from HXB2R HIV strain; 6xHis (from the pTAT vector) (N); made in house; the purified protein was added to Jurkat T cells
Protocol: To assay for in vivo cleavage, p 16(−) Jurkat T cells were transduced with 100 nM TAT-Ap16 or control TAT-p16 protein (no HIV cleavage site) alone or in combination with 50 nM TATHIV Pr fusion protein for 5 hr and analyzed by anti-p16 immunoblot for in vivo cleavage at the HIV A proteolytic cleavage site (FIG. 10A). […] Size analysis of the cleaved TAT-A-p 16 protein was consistent with retention of the residual HIV half site present on the N′ terminus of p 16 (FIG. 10A, see lane 4 vs. 5).
Further, the TAT-Casp3MUT protein was transduced in combination with TAT-HIV Pr protein into cells (FIG. 10B).
The in vivo processing in co-transduced cells shown in FIGS. 10A and 10B is explained in more detail as follows. FIG. 10A. Cultures of p16(−) Jurkat T cells were transduced with TAT-p 16 or TAT-A-p 16 substrate proteins in combination with TATHIV Pr proteins for 5 hr and subjected to anti-p 16 immunoblot analysis. […] WCE, HepG2 whole cell lysate containing wild type endogenous p16; A-p16, cleaved TAT-A-16 product retaining the HIV half site on p16. FIG. 10B. Cultures of Jurkat T cells were transduced with TATCasp3MUT protein (TAT-“D” site-p 17 domain-“A” site-p12 domain) alone or in combination with TAT-HIV Pr (Pr) protein as indicated and immunoblotted with anti-Caspase-3 antibodies specific for the p17 domain. TAT-D-p17-A, cleaved product of TAT-Casp3 containing the N′ terminal HIV A half site.
as §1

Row | Molecule | dose analysis of protein transduction ([1]; 3, 6 and 12 nM, 1 hr post-addition, at equilibrium) | intracellular localisation by confocal microscopy ([1]; FITC-labeled protein) | cells transduced [1] [%] | appearance of cells containing <2N DNA content [2] | earliest detection of cellular death post-transduction [2] [h] | kinetic analysis of cell death (shape of curve) [2] | TUNEL positive cells, protein transduced alone ([3]; 100 nM TAT-Casp3 or 50 nM TAT-HIV Pr) | TUNEL positive cells, co-transduced with TAT-HIV Pr ([3]; 100 nM plus 50 nM TAT-HIV Pr) | caspase activity, co-transduced with TAT-HIV Pr ([4]; 100 nM plus 50 nM TAT-HIV Pr) | caspase activity, protein transduced alone [4] | effect on viability of HIV positive cells ([5]; 100 nM, 16 hr, cultures approximately 50% HIV positive) | appearance of cells containing <2N DNA content and cells with condensed nuclei ([5]; HIV infected cultures) | cleavage of the fusion protein in HIV-infected cells [6] | cleavage at the HIV cleavage site when co-transduced with TAT-HIV Pr [7]
1 | B1 | concentration-dependency | both cytoplasmic and nuclear compartments | ~100 | detected | 4 | linear killing curve | only background levels; also recorded: remained at background levels | marked increase; also recorded: specific TUNEL positive cells | marked increase in caspase activity that was greater than αFAS treatment; also recorded: specific activation of caspase-3 activity | only background levels | dramatic loss of HIV positive cells; also recorded: efficiently kills a large percentage of HIV positive cells | detected |  | 
2 | B2 |  |  | 100 |  |  |  |  |  |  |  |  |  | not cleaved | not cleaved
